Laboratory results from paper PMC10400579, “FDW028, a novel FUT8 inhibitor, impels lysosomal proteolysis of B7-H3 via chaperone-mediated autophagy pathway and exhibits potent efficacy against metastatic colorectal cancer” (Cell Death & Disease, 2023).

How the values were obtained:
[1] = immunofluorescence colocalization, Pearson's R; conditions: glycan changed form; control: control siRNA / untreated cells
[2] = immunoblot of B7-H3, SW480 and HCT-8; conditions: glycan changed form; control: control siRNA / untreated cells
[3] = cell surface biotinylation, membrane-fraction immunoblot; conditions: glycan changed form; control: control siRNA
[4] = CHX chase, B7-H3 remaining by immunoblot; conditions: glycan changed form; control: control siRNA

B1: B7-H3 (CD276): FDW028 (FUT8 inhibitor) (protein)
parent chain: MLRRRGSPGMGVHVGAALGALWFCLTGALEVQVPEDPVVALVGTDATLCCSFSPEPGFSLAQLNLIWQLTDTKQLVHSFAEGQDQGSAYANRTALFPDLLAQGNASLRLQRVRVADEGSFTCFVSIRDFGSAAVSLQVAAPYSKPSMTLEPNKDLRPGDTVTITCSSYQGYPEAEVFWQDGQGVPLTGNVTTSQMANEQGLFDVHSILRVVLGANGTYSCLVRNPVLQQDAHSSVTITPQRSPTGAVEVQVPEDPVVALVGTDATLRCSFSPEPGFSLAQLNLIWQLTDTKQLVHSFTEGRDQGSAYANRTALFPDLLAQGNASLRLQRVRVADEGSFTCFVSIRDFGSAAVSLQVAAPYSKPSMTLEPNKDLRPGDTVTITCSSYRGYPEAEVFWQDGQGVPLTGNVTTSQMANEQGLFDVHSVLRVVLGANGTYSCLVRNPVLQQDAHGSVTITGQPMTFPPEALWVTVGLSVCLIALLVALAFVCWRKIKQSCEEENAGAEDQDGEGEGSKTALQPLKHSDSKEDDGQEIA
localisation_or_trafficking [1]: increases
expression_or_secretion [2]: decreases

B2: B7-H3 (CD276): FUT8 siRNA (protein)
parent chain: B1 parent chain
expression_or_secretion [3]: decreases
localisation_or_trafficking [1]: increases
degradation_or_half_life [4]: decreases
expression_or_secretion [2]: decreases
